Experimental data taken from article PMC4141790, “RecA Protein Plays a Role in the Chemotactic Response and Chemoreceptor Clustering of Salmonella enterica” (PLoS ONE, 2014).

B1: CheW coupling protein fused to a β-galactosidase truncation (ΔαCheW / ΔωCheW) (natural protein)
chain: MTGMSNVSKLAGEPSGQEFLVFTLGNEEYGIDILKVQEIRGYDQVTRIANTPAFIKGVTNLRGVIVPIVDLRVKFCEGDVEYDDNTVVIVLNLGQRVVGIVVDGVSDVLSLTAEQIRPAPEFAVTLSTEYLTGLGALGERMLILVNIEKLLNSEEMALLDIAASHVA
notes: CheW coupling protein, S. enterica sv; Typhimurium; the cheW gene was PCR-amplified and cloned (SphI/BamHI) into both pB2HΔα and pB2HΔω; One molecule for both fusions (Δα and Δω), since each protein stood in both positions of the two-hybrid system; also called Δα-cheW fusion; Δω-cheW fusion; source: two-hybrid fusion, co-expressed in E. coli MC1061 (pB2HΔα / pB2HΔω derivatives, 20 nM IPTG)
B2: RecA protein fused to a β-galactosidase truncation (ΔαRecA / ΔωRecA) (natural protein)
chain: MAIDENKQKALAAALGQIEKQFGKGSIMRLGEDRSMDVETISTGSLSLDIALGAGGLPMGRIVEIYGPESSGKTTLTLQVIAAAQREGKTCAFIDAEHALDPVYARKLGVDIDNLLCSQPDTGEQALEICDALARSGAVDVIVVDSVAALTPKAEIEGEIGDSHMGLAARMMSQAMRKLAGNLKQSNTLLIFINQIRMKIGVMFGNPETTTGGNALKFYASVRLDIRRIGAVKEGDNVVGSETRVKVVKNKIAAPFKQAEFQILYGEGINFYGELVDLGVKEKLIEKAGAWYSYNGEKIGQGKANATTWLKENPATAKEIEKRVRELLLSNQNATPDFAVDDSEGVAETNEDF
notes: RecA, S. enterica sv; Typhimurium; the recA gene was PCR-amplified and cloned (SphI/BamHI) into both pB2HΔα and pB2HΔω; One molecule for both fusions (Δα and Δω), since each protein stood in both positions of the two-hybrid system; also called Δα-recA fusion; Δω-recA fusion; source: two-hybrid fusion, co-expressed in E. coli MC1061 (pB2HΔα / pB2HΔω derivatives, 20 nM IPTG)

Experiments:
[1] = molecular target: B2; test: two-hybrid; β-galactosidase Δα/Δω complementation (pB2HΔα/pB2HΔω) in E. coli MC1061; 37°C, samples 5 h after 20 nM IPTG; activity relative to the non-interaction control strain expressing ΔαAmyA and ΔωDnaE; conditions: partners not purified
[2] = molecular target: B1; test: as above; conditions: partners not purified

Row | Binder | relative β-galactosidase expression [1] | relative β-galactosidase expression [2]
1 | B1 | > 7 relative to the non-interaction control strain | –
2 | B2 | – | > 7 relative to the non-interaction control strain
